Results taken from patent publication US20040204434A1, “Compounds and methods for lowering the abuse potential and extending the duration of action of a drug” (Controlled Chemicals Inc., priority 2003, published 2004).

Columns and labels:
μ (rat) opioid receptor [1] = molecular target: T1, μ (rat) opioid receptor (Rattus norvegicus, UniProt P33535); test: Inhibition of radio labeled ligand binding to membranes from C6 rat glioma cells expressing recombinant μ opioid receptor; conditions: in words
T1 construct: expressed in transfected cells; host or cells: C6 rat glioma cells (membranes)
T1 sequence (P33535 whole entry): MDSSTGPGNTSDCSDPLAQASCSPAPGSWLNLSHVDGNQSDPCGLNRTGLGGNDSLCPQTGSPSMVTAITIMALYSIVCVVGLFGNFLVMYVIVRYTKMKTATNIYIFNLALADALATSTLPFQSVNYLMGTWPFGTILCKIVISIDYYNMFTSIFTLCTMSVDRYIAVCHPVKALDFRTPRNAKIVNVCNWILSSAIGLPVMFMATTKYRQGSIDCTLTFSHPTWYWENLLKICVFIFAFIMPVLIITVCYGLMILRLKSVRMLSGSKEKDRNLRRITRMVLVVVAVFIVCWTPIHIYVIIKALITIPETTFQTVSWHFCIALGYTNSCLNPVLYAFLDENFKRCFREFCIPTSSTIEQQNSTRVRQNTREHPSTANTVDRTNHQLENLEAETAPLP
Method: (§1) Opioid-agonist activity was evaluated from the ability of the test article to stimulate [^35S]-GTP's binding.

μ (rat) opioid receptor [2] = molecular target: T1, μ (rat) opioid receptor; test: Opioid-agonist activity: stimulation of [35S]-GTP's binding; type: biochemical
Method: as §1

[3] = Release of oxycodone from prodrugs without pancreatin; conditions: 37° C., pH 7.4, no pancreatin
Pancreatin = test: Effect of pancreatin on release of oxycodone from prodrugs; conditions: in words
[4] = Nonenzymatic hydrolysis of oxycodone ester prodrugs to oxycodone in buffered solution (HPLC); type: physicochemical; conditions: pH 7, 37° C.

COc1ccc2c3c1O[C@H]1C(OC(=O)C(CCC(=O)O)NC(=O)OCc4ccccc4)=CC[C@@]4(O)[C@@H](C2)N(C)CC[C@]314 (stereo partly drawn) [Compound 1, 2-(benzyloxycarbonylamino)-pentanedioic acid 1-(3-methoxy-14-hydroxy-6,7-didehydro-4,5α-epoxy-17-methylmorphinan-6-yl) ester]
affinity for the μ receptor relative to oxycodone (μ (rat) opioid receptor [1]): substantially lower
EC50 (μ (rat) opioid receptor [2]): 3.38 ± 0.29 µM

poly(ethylene glycol), Mr 2,000, methyl ether, N-carbonylglutamic acid 1-(3-methoxy-14-hydroxy-6,7-didehydro-4,5α-epoxy-17-methylmorphinan-6-yl) ester [Compound 4]
Half-Life for Hydrolysis, no pancreatin [3]: 5.5 h
Effect of pancreatic enzymes on liberation of oxycodone from prodrug (Pancreatin): do not markedly effect

poly(ethylene glycol), Mr 2,000, methyl ether, carbonylimidodiacetic acid mono-(3-methoxy-14-hydroxy-6,7-didehydro-4,5α-epoxy-17-methylmorphinan-6-yl) ester [Compound 5]
Half-Life for Hydrolysis, no pancreatin [3]: 11 h
Effect of pancreatic enzymes on liberation of oxycodone from prodrug (Pancreatin): do not markedly effect

poly(ethylene glycol), Mr 2,000, methyl ether, carboxy ((3-methoxy-14-hydroxy-6,7-didehydro-4,5α-epoxy-17-methylmorphinan-6-yl) ester) methyl ether [Compound 8]
Half-Life for Hydrolysis, no pancreatin [3]: 6.9 h
Effect of pancreatic enzymes on liberation of oxycodone from prodrug (Pancreatin): markedly enhanced

COc1ccc2c3c1OC1C(OC(C)=O)=CCC4(O)C(C2)N(C)CCC314 (stereo not shown) [6-enolacetate]
half-life for hydrolysis [4]: ~96 h

COc1ccc2c3c1O[C@H]1C(=O)CC[C@@]4(OC(C)=O)[C@@H](C2)N(C)CC[C@]314 [14-acetate ester of oxycodone]
half-life for the hydrolysis [4]: ~0.333 h
